The record followed here is paper doi:10.1101/2022.01.16.476540 (bioRxiv, 2022).

Substitutions are numbered along the chain they refer to. In names and notes the source's numbering stands.

B1: Snc2 WT (1-115) (natural protein)
chain: MSSSVPYDPYVPPEESNSGANPNSQNKTAALRQEIDDTVGIMRDNINKVAERGERLTSIEDKADNLAISAQGFKRGANRVRKQMWWKDLKMRMCLFLVVIILLVVIIVPIVVHFS
B2: Cy3-labeled Sec9 (A442C) (domain or fragment)
chain: ARQQQEEDEAVDEIKQEIKFTKQSSVCSTRNTLKMAQDAERAGMNTLGMLGHQSEQLNNVEGNLDLMKVQNKVADEKVAELKKLNRSILAVHVSNPFNSKRRRREREEQLKNRKIEEKLMREQTSQQLSQSTQRIEGAMNANNNISEVRERYQRKNVLEKAKRYQFENDEEDDEMELEIDRNLDQIQQVSNRLKKMALTTGKELDSQQKRLNNIEESTDDLDINLHMNTNRLAGIR
B3: Sec9 (a.a. 416-651) (domain or fragment)
chain: B2 chain with C27A
B4: Habc domain-truncated Sso1 (a.a. 185-290) (domain or fragment)
chain: EAKTALAEVQARHQELLKLEKSMAELTQLFNDMEELVIEQQENVDVIDKNVEDAQLDVEQGVGHTDKAVKSARKARKNKIRCWLIVFAIIVVVVVVVVVPAVVKTR

Assay [1] deals with T1, binary Q-SNARE complex (full-length Sso1: Sec9) on vesicle membranes (yeast (S. cerevisiae), UniProt P32867;P40357).
T1 sequence 1: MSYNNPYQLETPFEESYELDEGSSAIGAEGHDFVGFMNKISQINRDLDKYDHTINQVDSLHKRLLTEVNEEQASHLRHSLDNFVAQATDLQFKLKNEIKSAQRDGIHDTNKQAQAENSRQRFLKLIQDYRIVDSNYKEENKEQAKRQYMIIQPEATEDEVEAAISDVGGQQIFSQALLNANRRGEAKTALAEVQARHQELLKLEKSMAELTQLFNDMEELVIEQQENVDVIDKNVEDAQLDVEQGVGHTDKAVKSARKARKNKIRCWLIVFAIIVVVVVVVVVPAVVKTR
T1 sequence 2: B2 chain with C27A
Briefly: single-vesicle docking.

In assay [2] the target is T2, binary Q-SNARE complex (Habc-truncated Sso1: Sec9) on vesicle membranes (yeast (S. cerevisiae), UniProt P32867;P40357).
T2 sequence 1: B4 chain
T2 sequence 2: B2 chain with C27A
In words: single-vesicle docking.

The target in assay [3] is T3, Full length Sso1 WT (a.a. 1-290) (yeast (S. cerevisiae), UniProt P32867 1-290).
T3 sequence: T1 sequence 1
In words: single-molecule pull-down.

For assay [4], the target named is T3, Full length Sso1 WT (a.a. 1-290). In words: single-vesicle docking.
Assay [5] has as its target B3. Briefly: single-vesicle docking.

For B1, the binding result in assay [1] and in assay [2] was “binds” in each case. On to B2, for which the binding result in assay [3] is recorded as “binds”.

For B3, the binding result in assay [4] is listed as “binds”. As for B4, the binding result in assay [5] is “binds”.
